Source: publication PMC10415144, “Structural insights into CodY activation and DNA recognition”
Residue numbers refer to the chain shown, from its start.

What was measured:
SaCodY [1] = molecular target: T1, SaCodY (Staphylococcus aureus, UniProt Q2FHI3 1-257); experiment: BLI; Ile + GTP (implied); BLI: 20 mM Tris-HCl pH 8, 150 mM NaCl, 2 mM MgCl2, 0.1% NP-40, 25 C; 2 mM GTP and/or 10 mM Ile/Leu/Val as stated; conditions: protein: recombinant; tags: His6 removed by TEV; N-terminal Gly-Ala remnant; chain copies: 4; label: 5'-biotin on one strand; 3-nt overhang at biotinylated 5' end
T1 sequence: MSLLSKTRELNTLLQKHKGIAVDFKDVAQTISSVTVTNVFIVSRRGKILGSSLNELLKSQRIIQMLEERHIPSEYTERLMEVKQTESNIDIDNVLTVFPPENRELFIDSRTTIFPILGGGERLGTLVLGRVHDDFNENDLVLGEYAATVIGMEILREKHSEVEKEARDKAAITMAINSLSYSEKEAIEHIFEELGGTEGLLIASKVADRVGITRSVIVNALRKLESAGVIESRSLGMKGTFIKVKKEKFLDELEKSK

EfCodY [2] = molecular target: T2, EfCodY (Enterococcus faecalis, UniProt Q834K5 1-260); experiment: BLI; 10 mM Leu; BLI: 20 mM Tris-HCl pH 8, 150 mM NaCl, 2 mM MgCl2, 0.1% NP-40, 25 C; 2 mM GTP and/or 10 mM Ile/Leu/Val as stated; conditions: protein: recombinant; tags: His6 removed by TEV; N-terminal Gly-Ala remnant; chain copies: 4; label: 5'-biotin on one strand; 3-nt overhang at biotinylated 5' end
T2 sequence: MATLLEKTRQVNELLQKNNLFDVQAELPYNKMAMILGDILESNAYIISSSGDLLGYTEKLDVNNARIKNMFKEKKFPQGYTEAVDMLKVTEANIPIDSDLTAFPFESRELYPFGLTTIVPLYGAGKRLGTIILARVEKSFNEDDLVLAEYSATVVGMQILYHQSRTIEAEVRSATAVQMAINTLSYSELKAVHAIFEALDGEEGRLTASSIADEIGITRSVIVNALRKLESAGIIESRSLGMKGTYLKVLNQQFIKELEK

SaCodY [3] = molecular target: T1, SaCodY; experiment: X-ray crystallography; Ile + GTP; two dimers per duplex; BLI: 20 mM Tris-HCl pH 8, 150 mM NaCl, 2 mM MgCl2, 0.1% NP-40, 25 C; 2 mM GTP and/or 10 mM Ile/Leu/Val as stated; conditions: protein: recombinant; tags: His6 removed by TEV; N-terminal Gly-Ala remnant; chain copies: 4; blunt
EfCodY [4] = molecular target: T2, EfCodY; experiment: X-ray crystallography; Leu (bound in dimer 1 only); two dimers per duplex; BLI: 20 mM Tris-HCl pH 8, 150 mM NaCl, 2 mM MgCl2, 0.1% NP-40, 25 C; 2 mM GTP and/or 10 mM Ile/Leu/Val as stated; conditions: protein: recombinant; tags: His6 removed by TEV; N-terminal Gly-Ala remnant; chain copies: 4; blunt
EfCodY [5] = molecular target: T2, EfCodY; experiment: BLI; 1 uM protein; 10 mM Leu; BLI: 20 mM Tris-HCl pH 8, 150 mM NaCl, 2 mM MgCl2, 0.1% NP-40, 25 C; 2 mM GTP and/or 10 mM Ile/Leu/Val as stated; conditions: protein: recombinant; tags: His6 removed by TEV; N-terminal Gly-Ala remnant; chain copies: 4; label: 5'-biotin on one strand; 3-nt overhang at biotinylated 5' end
SaCodY [6] = molecular target: T1, SaCodY; experiment: BLI; 1 uM protein; 10 mM Ile + 2 mM GTP; BLI: 20 mM Tris-HCl pH 8, 150 mM NaCl, 2 mM MgCl2, 0.1% NP-40, 25 C; 2 mM GTP and/or 10 mM Ile/Leu/Val as stated; conditions: protein: recombinant; tags: His6 removed by TEV; N-terminal Gly-Ala remnant; chain copies: 4; label: 5'-biotin on one strand; 3-nt overhang at biotinylated 5' end
EfCodY quadruple mutant = EfCodY quadruple mutant (Enterococcus faecalis, UniProt Q834K5 1-260, Y186A;R238A;L240A;Y246A); experiment: BLI; 8 uM protein, 10 mM Leu; BLI: 20 mM Tris-HCl pH 8, 150 mM NaCl, 2 mM MgCl2, 0.1% NP-40, 25 C; 2 mM GTP and/or 10 mM Ile/Leu/Val as stated; conditions: protein: recombinant; tags: His6 removed by TEV; N-terminal Gly-Ala remnant; chain copies: 2; label: 5'-biotin on one strand; 3-nt overhang at biotinylated 5' end
SaCodY [7] = molecular target: T1, SaCodY; experiment: BLI; 1 uM SaCodY; Ile + GTP (implied); BLI: 20 mM Tris-HCl pH 8, 150 mM NaCl, 2 mM MgCl2, 0.1% NP-40, 25 C; 2 mM GTP and/or 10 mM Ile/Leu/Val as stated; conditions: protein: recombinant; tags: His6 removed by TEV; N-terminal Gly-Ala remnant; chain copies: 4; label: 5'-biotin on one strand; 3-nt overhang at biotinylated 5' end

B1: hutP operator overlapping sites (dsDNA)
DNA 1: AGTTAATAGTTATCAGAATTTTTAGGAATTGAGTG
DNA 2: CACTCAATTCCTAAAAATTCTGATAACTATTAACT
With B1 the Kd (SaCodY [1]) was 598 nM and the binding result (EfCodY [2]) was “binds”.

B2: 30-bp crystallization DNA (dsDNA)
DNA 1: GATAATTTTCAGAATTTTCAGAAAATTTAG
DNA 2: CTAAATTTTCTGAAAATTCTGAAAATTATC
B2: binds (SaCodY [3]); binds (EfCodY [4]).

B3: hutP1 single site (dsDNA)
DNA 1: AGTTAATAGTTATCAGAATTTTTAGG
DNA 2: CCTAAAAATTCTGATAACTATTAACT
In the case of B3, the Kd (SaCodY [1]) is reported as 1230 nM.

B4: consensus T>G (dsDNA)
DNA 1: CCGCCGGATAATTTGCAGCATTTGCAGCAAATTTAGCCG
DNA 2: CGGCTAAATTTGCTGCAAATGCTGCAAATTATCCGGCGG
B4: no binding (EfCodY [5]); no binding (SaCodY [6]).

B5: 24-nt sequence-optimized overlapping sites (consensus) (dsDNA)
DNA 1: B4 DNA 1 with G15T, C19A, G24T, C28A
DNA 2: B4 DNA 2 with G12T, C16A, G21T, C25A
B5: no binding (EfCodY quadruple mutant).

B6: hutP2 single site (dsDNA)
DNA 1: AGTTCAGAATTTTTAGGAATTGAGTG
DNA 2: CACTCAATTCCTAAAAATTCTGAACT
B6: no binding (SaCodY [7]).
